# Measured values as given in paper PMC11059233.
# Molecular target: HLA-B*35:01 expressed in C1R cells (C1R.B*35:01) (human | human (endogenous in C1R))
row,Substance,IFN-γ+TNF+ CD8+ T cells (expanded with pool J) after restimulation with peptide-pulsed C1R.B*35:01; donors responding
1,influenza B virus HA_(231-239) peptide,3 of 6 donors
2,influenza B virus NS1_(260-268) peptide,5 of 6 donors

# Molecular target: HLA-B*08:01 expressed in C1R cells (C1R.B*08:01) (human | human (endogenous in C1R))
row,Substance,IFN-γ+TNF+ CD8+ T cells (expanded with pool I) after restimulation with peptide-pulsed C1R.B*08:01; donors responding
1,influenza B virus NP_(92-99) peptide,6 of 9 donors
2,influenza B virus NP_(30-38) peptide,5 of 9 donors
3,influenza B virus NP_(479-487) peptide,4 of 9 donors

# Molecular target: HLA-B*07:02 expressed in C1R cells (C1R.B*07:02) (human | human (endogenous in C1R))
row,Substance,IFN-γ+TNF+ CD8+ T cells (expanded with pool H) after restimulation with peptide-pulsed C1R.B*07:02; donors responding
1,influenza B virus NP_(30-38) peptide,7 of 10 donors
2,influenza B virus NP_(233-244) peptide,9 of 10 donors
3,influenza B virus NS1_(196-206) peptide,6 of 10 donors
4,influenza B virus HA_(255-263) peptide,2 of 10 donors
